Among the data in the Human Domainome abundance scans (Beltran et al. 2025) are abundance fitness values, retold here.

The labels stand for the following.
B1: Formin-binding protein 4, residues 593 to 636; numbered along this chain, Q8N3X1 (parent)
chain: EINATPKGWSCHWDRDHRRYFYVNEQSGESQWEFPDGEEEEEES

± gives the uncertainty stated by the source.

Variants of B1 are the subject of this data set. The experiment in a line: abundance fitness (aPCA) (normalised: wild type 0, dead -1); higher = more abundant; growth selection in yeast, the domain comes from the species named. The following applies: Homo sapiens.
As to E42F, the abundance fitness was -0.368 ± 0.16. Turning to E42S, the abundance fitness was 0.032 ± 0.073. For E42Y the value was -0.152 ± 0.14. For E33F the value was -0.497 ± 0.081; for E33L, -0.401 ± 0.072; for E33P, -0.59 ± 0.083. For E33K the value was -0.232 ± 0.062; for E33S, -0.184 ± 0.082; for E33I, -0.284 ± 0.28. For E33W, the abundance fitness was -0.429 ± 0.063. For Q31N the value was -0.742 ± 0.33; for Q31R, -0.075 ± 0.059; for Q31P, -0.819 ± 0.18. For Q31C the value was -0.129 ± 0.093.

Regarding Q31V, the abundance fitness was -0.153 ± 0.061.

Q31W: the abundance fitness is -0.613 ± 0.062. For Q31S the value was -0.293 ± 0.087. As for Q31M, the abundance fitness was -0.451 ± 0.12. As for W9R, the abundance fitness is -0.817 ± 0.071. For W9Y the value was -0.534 ± 0.16. On to W9L, for which the abundance fitness is -0.719 ± 0.083. For W9G the value was -0.423 ± 0.058. Consider W9E, for which the abundance fitness is -0.661 ± 0.16. For E29L the value was -0.129 ± 0.094; for E29A, -0.052 ± 0.081. For E29G the value was -0.253 ± 0.07; for D16S, -0.24 ± 0.09; for D16K, -0.169 ± 0.084. For T5A the value was -0.387 ± 0.26; for T5Q, -0.358 ± 0.44; for T5S, -0.81 ± 0.33. For the variant D14I, the abundance fitness is -0.799 ± 0.17.

For the variant D14M, the abundance fitness was -0.682 ± 0.098. For D14S the value was -0.141 ± 0.077; for D14T, -0.747 ± 0.13. For D14H the value was -0.289 ± 0.13; for G28L, -0.363 ± 0.071.

For G28W, the abundance fitness was -1.14 ± 0.12. For G28E the value was -0.702 ± 0.1; for G8N, -0.373 ± 0.16; for G8L, -0.795 ± 0.13. For G8T the value was -0.843 ± 0.27.

For G37D, the abundance fitness is -0.266 ± 0.18. For G37C the value was -0.088 ± 0.086; for G37Q, -0.089 ± 0.094.

On to G37W, for which the abundance fitness was -0.154 ± 0.072. For E39R the value was -0.068 ± 0.061; for E39G, -0.057 ± 0.063; for E39T, 0.11 ± 0.084. For E43L the value was -0.086 ± 0.093; for E43R, -0.056 ± 0.077. For E43A the value was 0.068 ± 0.07; for E43M, -0.148 ± 0.11; for E43D, -0.02 ± 0.13.

As to E1G, the abundance fitness was -0.433 ± 0.11. For E1M the value was -0.019 ± 0.2; for E1D, -0.154 ± 0.15. For E1R the value was -0.186 ± 0.23; for W13D, -0.71 ± 0.14; for W13E, -0.456 ± 0.084. For W13Q the value was -0.546 ± 0.085; for W13I, -0.986 ± 0.31; for W13C, -0.497 ± 0.1.

Turning to W13Y, the abundance fitness was -0.189 ± 0.25.

For A4E, the abundance fitness amounted to 0.081 ± 0.19. For A4T the value was -0.032 ± 0.16; for F21E, -0.145 ± 0.089. For F21A the value was -0.179 ± 0.064; for F21V, 0.113 ± 0.067; for F21T, -0.111 ± 0.16. For F21H the value was -0.391 ± 0.11.

Take F21Q: the abundance fitness is -0.223 ± 0.19. For S44R the value was 0.025 ± 0.3; for S44V, 0.253 ± 0.16; for S44D, -0.043 ± 0.3.

Regarding S30K, the abundance fitness turned out to be 0.274 ± 0.16.

Take S30V: the abundance fitness was determined as 0.094 ± 0.072. For S30R the value was 0.27 ± 0.081; for S30A, 0.014 ± 0.071. For S30W the value was 0.02 ± 0.11; for I2A, -0.518 ± 0.2. For I2S the value was 0.142 ± 0.1.

With I2P, the abundance fitness is -0.094 ± 0.11.

Take I2L: the abundance fitness is -0.208 ± 0.11. For I2V the value was -0.204 ± 0.095; for I2W, -0.283 ± 0.1.

Take C11V: the abundance fitness was -0.257 ± 0.2. For C11K the value was -0.025 ± 0.2.

Take C11G: the abundance fitness turned out to be 0.037 ± 0.25.

Regarding E38T, the abundance fitness was -0.014 ± 0.066. For E38G the value was -0.051 ± 0.072; for E38I, -0.021 ± 0.16; for R15N, -0.05 ± 0.12. For R15S the value was 0.019 ± 0.093.

R15L: the abundance fitness was -0.167 ± 0.082. On to R15Y, for which the abundance fitness was -0.302 ± 0.2. For the variant R15H, the abundance fitness is 0.116 ± 0.096. For R15M the value was -0.18 ± 0.11; for R15A, -0.059 ± 0.073. For R15T the value was -0.162 ± 0.29; for Y22D, -0.552 ± 0.17; for Y22I, -0.515 ± 0.17.

Take Y22K: the abundance fitness came out at 0.291 ± 0.34. For Y22G the value was -0.544 ± 0.081. In the case of Y22Q, the abundance fitness was -0.439 ± 0.099. For H17G the value was -0.274 ± 0.065; for H17W, -0.486 ± 0.095. As for H17Q, the abundance fitness turned out to be 0.186 ± 0.16.

Regarding H17A, the abundance fitness is 0.037 ± 0.07. With H17S, the abundance fitness was -0.01 ± 0.081. For H17D, the abundance fitness was -0.201 ± 0.11. For F34S the value was -0.282 ± 0.087; for F34Q, 0.015 ± 0.089. For F34L the value was 0.015 ± 0.061; for F34K, 0.222 ± 0.095; for F34C, -0.035 ± 0.096. As to F34T, the abundance fitness is 0.013 ± 0.09. For Q26G the value was -0.199 ± 0.063; for Q26M, -0.242 ± 0.18.

With Q26S, the abundance fitness is -0.071 ± 0.081. For Q26F the value was -0.015 ± 0.29. For Q26A the value was 0.017 ± 0.071. As to Q26H, the abundance fitness was -0.266 ± 0.2. For Q26T the value was -0.104 ± 0.12; for Q26R, -0.085 ± 0.067; for N3A, -0.177 ± 0.088. For N3T the value was -0.355 ± 0.48; for N3S, -0.072 ± 0.12; for N3Y, -0.062 ± 0.24. For N3L the value was -0.239 ± 0.11; for Y20E, -0.488 ± 0.078. As for Y20R, the abundance fitness is -0.229 ± 0.068. For Y20C the value was -0.196 ± 0.12; for Y20W, 0.072 ± 0.07; for Y20S, -0.353 ± 0.08. Consider Y20P, for which the abundance fitness is -0.143 ± 0.1. For K7G the value was -0.577 ± 0.15; for K7V, -0.065 ± 0.12. Take K7T: the abundance fitness was -0.456 ± 0.27.

Turning to K7L, the abundance fitness was -0.299 ± 0.1. For D36Y the value was -0.494 ± 0.13. For D36Q the value was -0.063 ± 0.072; for D36N, -0.273 ± 0.16; for D36F, -0.232 ± 0.11. For H12W the value was -0.637 ± 0.094; for H12R, -0.17 ± 0.07; for H12Y, -0.227 ± 0.15. As for H12N, the abundance fitness was -0.287 ± 0.18. For H12M the value was -0.498 ± 0.13. For H12K the value was -0.179 ± 0.097; for H12Q, -0.432 ± 0.2; for H12L, -0.306 ± 0.073.

For P35V, the abundance fitness is -0.583 ± 0.071. For P35S the value was -0.651 ± 0.095; for P35F, -0.854 ± 0.23; for P35K, -0.482 ± 0.098. For P35N the value was -0.74 ± 0.11; for W32V, -0.093 ± 0.091; for W32S, -0.23 ± 0.066. For W32K the value was -0.246 ± 0.079; for W32F, 0.047 ± 0.15. W32I: the abundance fitness worked out at 0.001 ± 0.13. For R19V the value was -0.491 ± 0.077. For R19G the value was -0.485 ± 0.07; for R19K, -0.058 ± 0.088; for R19P, -1.24 ± 0.3.

With E40L, the abundance fitness was determined as 0.008 ± 0.061.
